# Experimental data: patent publication US20250043302A1, “MUTATED HYDROXYPHENYLPYRUVATE DIOXYGENASE POLYPEPTIDE, AND CODING GENE AND USE THEREOF” (BEIJING DABEINONG BIOTECHNOLOGY CO., LTD., priority 2021, published 2025)
# How the values were obtained:
# Type in all cases: in vivo
# [1] = tested on: Arabidopsis thaliana T1 plants; assay: Topramezone tolerance of transgenic Arabidopsis thaliana T1 plants (spray, bleached leaf area grade, damage score); settings: for Classification and statistics of the grade of pesticide damage: Grade 0 / Classification and statistics of the grade of pesticide damage: Grade 1 / Classification and statistics of the grade of pesticide damage: Grade 2 / Classification and statistics of the grade of pesticide damage: Grade 3: number of plants; for Classification and statistics of the grade of pesticide damage: Grade 0 / Classification and statistics of the grade of pesticide damage: Grade 1 / Classification and statistics of the grade of pesticide damage: Grade 2 / Classification and statistics of the grade of pesticide damage: Grade 3 / Scores / Resistance evaluation: 7 DAT, Table 1; for Scores: pesticide damage score 0-100
# Source text: T1 transformants were initially selected from the untransformed seeds using a glufosinate selection scheme. The Arabidopsis thaliana T1 plants (AsHPPD-02) into which the AsHPPD-02 nucleotide sequence was introduced, the Arabidopsis thaliana T1 plants (AsHPPDm-F372A-02) into which the AsHPPDm-F372A-02 nucleotide sequence was introduced, the Arabidopsis thaliana T1 plants (AsHPPDm-F383W-02) into which the AsHPPDm-F383W-02 nucleotide sequence was introduced, the Arabidopsis thaliana T1 plants (AsHPPDm-F372A-F383W-02) into which the AsHPPDm-F372A-F383W-02 nucleotide sequence was introduced, the Arabidopsis thaliana T1 plants (DBN11726N) into which the control recombinant expression vector DBN11726N was introduced, and the wild-type Arabidopsis thaliana plants (CK) (18 days after sowing) were sprayed respectively with topramezone at three concentrations (100 g ai/ha (four-fold field concentration, 4×), 200 g ai/ha (eight-fold field concentration, 8×), and 0 g ai/ha (water, 0×)), isoxaflutole at three concentrations (140 g ai/ha (two-fold field concentration, 2×), 280 g ai/ha (four-fold field concentration, 4×), and 0 g ai/ha (water, 0×)), and mesotrione at three concentrations (210 g ai/ha (two-fold field concentration, […]), 420 g ai/ha (four-fold field concentration, 4×), and 0 g ai/ha (water, 0×)), to determine the tolerance of Arabidopsis thaliana to the herbicides. The degree of damage caused by the herbicide was measured for each plant according to the proportion of bleached leaf area (the proportion of bleached leaf area=bleached leaf area/total leaf area×100%) 7 days after spraying (7 DAT): the case where there is basically no bleached phenotype is defined as grade 0, the case where the proportion of bleached leaf area is less than 50% is defined as grade 1, the case where the proportion of bleached leaf area is more than 50% is defined as grade 2, and the case where the proportion of bleached leaf area is 100% grade is defined as grade 3.
# According to the method as described above in point 6 of Example 1, the aforementioned Arabidopsis thaliana T1 plants and wild-type Arabidopsis thaliana plants (CK) (18 days after sowing) were sprayed respectively with topramezone at three concentrations (25 g ai/ha (one-fold field concentration, 1×). 100 g ai/ha (four-fold field concentration, 4×), and 0 g ai/ha (water, 0×)), isoxaflutole at three concentrations (35 g ai/ha (half-fold field concentration, 0.5×). 70 g ai/ha (one-fold field concentration, 1×), and 0 g ai/ha (water, 0×)), and mesotrione at three concentrations (52.5 g ai/ha (half-fold field concentration, 0.5×), 105 g ai/ha (one-fold field concentration, 1×), and 0 g ai/ha (water, 0×)) to detect the tolerance of Arabidopsis thaliana to the herbicides.
# According to the method as described above in point 6 of Example 1, the aforementioned Arabidopsis thaliana T1 plants and wild-type Arabidopsis thaliana plants (CK) (18 days after sowing) were sprayed with topramezone at three different concentrations (i.e., 100 g ai/ha (four-fold field concentration, 4×), 200 g ai/ha (eight-fold field concentration, 8×) and 0 g ai/ha (water, 0×)), isoxaflutole at three different concentrations (i.e., 140 g ai/ha (two-fold field concentration, 2×), 280 g ai/ha (four-fold field concentration, 4×) and 0 g ai/ha (water, 0×)), and mesotrione at three different concentrations (i.e., 210 g ai/ha (two-fold field concentration, 2×), 420 g ai/ha (four-fold field concentration, 4×) and 0 g ai/ha (water, 0×)) respectively to detect the herbicide tolerance of Arabidopsis thaliana. […]
# [2] = tested on: Arabidopsis thaliana T1 plants; assay: Mesotrione tolerance of transgenic Arabidopsis thaliana T1 plants (spray, bleached leaf area grade, damage score); design: Scores: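 damage score 0-100 computed as Σ(N×S)/(T×M)×100 over grades 0-3 with higher meaning more damage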; settings: for Resistance evaluation / Classification and statistics of the grade of pesticide damage: Grade 0 / Classification and statistics of the grade of pesticide damage: Grade 1 / Classification and statistics of the grade of pesticide damage: Grade 2 / Classification and statistics of the grade of pesticide damage: Grade 3 / Scores: 7 DAT, Table 3; for Classification and statistics of the grade of pesticide damage: Grade 0 / Classification and statistics of the grade of pesticide damage: Grade 1 / Classification and statistics of the grade of pesticide damage: Grade 2 / Classification and statistics of the grade of pesticide damage: Grade 3: number of plants; for Scores: pesticide damage score 0-100
# How it was run: (§1)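 Damage was assessed by bleaching grade (0 none; 1 <50%; 2 >50%; 3 100% of leaf area) one week after spraying. Sprays on 18-day-old T1 and wild-type plants used field-rate multiples: topramezone 25–200, isoxaflutole 35–280, mesotrione 52.5–420 g ai/ha.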
# [3] = tested on: Arabidopsis thaliana T1 plants; assay: Isoxaflutole tolerance of transgenic Arabidopsis thaliana T1 plants (spray, bleached leaf area grade, damage score); settings: for Resistance evaluation / Classification and statistics of the grade of pesticide damage: Grade 0 / Classification and statistics of the grade of pesticide damage: Grade 1 / Classification and statistics of the grade of pesticide damage: Grade 2 / Classification and statistics of the grade of pesticide damage: Grade 3 / Scores: 7 DAT, Table 2; for Classification and statistics of the grade of pesticide damage: Grade 0 / Classification and statistics of the grade of pesticide damage: Grade 1 / Classification and statistics of the grade of pesticide damage: Grade 2 / Classification and statistics of the grade of pesticide damage: Grade 3: number of plants; for Scores: pesticide damage score 0-100;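 on Scores: Weighted damage index from 0 to 100 where higher means more damage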
# How it was run: as §1
# [4] = mesotrione 210 g ai/ha (two-fold field concentration)
molecule,measurement,setting,value
"AsHPPDm-F372A-F383W-02: nucleotide sequence encoding Avena sativa HPPD with F372A+F383W; vector DBN11726 (nucleic acid, AsHPPDm-F372A-F383W-02 Nucleotide Sequence, vector DBN11726) DNA: ATGCCACCTACTCCAGCTACAGCTACTGGTGCTGCTGCTGCTGCCGTTACTCCTGAGCACGCTGCCAGGTCATTCCCCAGGGTGGTTCGCGTGAACCCCAGATCTGATAGGTTCCCAGTTCTGAGCTTCCACCATGTTGAGCTGTGGTGCGCTGATGCTGCTTCTGCTGCTGGCAGGTTCTCTTTCGCTCTTGGTGCTCCACTCGCTGCTAGATCTGATCTGTCTACAGGAAATAGCGCTCATGCCTCACTCCTGCTTCGCTCAGGTGCTTTGGCCTTCCTCTTCACCGCTCCATATGCTCCCCCACCTCAGGAGGCTGCTACTGCTGCTGCTACAGCCTCCATTCCAAGCTTCTCAGCTGATGCCGCTAGAACCTTCGCTGCTGCTCATGGACTTGCCGTGAGGTCTGTTGGTGTTCGCGTGGCTGATGCTGCTGAGGCTTTCAGAGTTTCCGTTGCCGGCGGAGCTAGGCCAGCTTTCGCTCCTGCTGATTTGGGACATGGTTTCGGCCTGGCTGAGGTTGAGCTTTACGGTGACGTGGTTCTCCGCTTCGTGTCTTACCCAGATGAGACTGACCTGCCTTTCCTTCCCGGCTTCGAGAGAGTTTCCTCTCCTGGTGCCGTGGATTACGGCCTGACAAGGTTCGACCACGTGGTTGGAAACGTTCCCGAGATGGCTCCAGTGATCGATTACATGAAGGGCTTCCTTGGATTCCATGAGTTCGCCGAGTTCACTGCTGAGGACGTGGGAACCACTGAGTCCGGTTTGAACTCTGTGGTTCTCGCCAACAATTCTGAGGCTGTTTTGCTCCCTCTGAATGAGCCTGTGCATGGAACCAAGAGGAGAAGCCAGATTCAAACTTACCTGGAGTACCACGGTGGCCCTGGAGTTCAGCATATCGCCCTTGCTTCTAATGATGTGTTGCGCACACTCAGAGAGATGCGCGCCAGAACCCCCATGGGAGGTTTCGAGTTCATGGCCCCACCACAGGCTAAGTACTACGAGGGCGTTAGAAGGATTGCTGGAGACGTGTTGAGCGAGGAGCAGATCAAGGAGTGCCAAGAGCTGGGTGTTCTTGTGGATAGGGATGACCAGGGCGTTCTGCTTCAAATTGCCACTAAGCCAGTGGGCGACCGCCCTACATTCTGGCTTGAGATGATTCAAAGAATCGGCTGCATGGAGAAGGATGAGGTTGGACAGGAGTACCAAAAGGGCGGATGCGGTGGCTTCGGAAAGGGTAACTTCAGCGAGTTGTTCAAGTCAATCGAGGACTACGAGAAGAGCCTCGAGGTGAAGCAGTCAGTGGTTGCCCAAAAGTCCTGA",Classification and statistics of the grade of pesticide damage: Grade 0,[1]; topramezone 100 g ai/ha (4×),16
same,Classification and statistics of the grade of pesticide damage: Grade 1,[1]; topramezone 100 g ai/ha (4×),0
same,Classification and statistics of the grade of pesticide damage: Grade 2,[1]; topramezone 100 g ai/ha (4×),0
same,Classification and statistics of the grade of pesticide damage: Grade 3,[1]; topramezone 100 g ai/ha (4×),0
same,Classification and statistics of the grade of pesticide damage: Grade 0,[1]; topramezone 200 g ai/ha (8×),16
same,Classification and statistics of the grade of pesticide damage: Grade 1,[1]; topramezone 200 g ai/ha (8×),0
same,Classification and statistics of the grade of pesticide damage: Grade 2,[1]; topramezone 200 g ai/ha (8×),0
same,Classification and statistics of the grade of pesticide damage: Grade 3,[1]; topramezone 200 g ai/ha (8×),0
same,Scores,[1]; topramezone 100 g ai/ha (4×),0
same,Scores,[1]; topramezone 200 g ai/ha (8×),0
same,Resistance evaluation,[1]; topramezone 100 g ai/ha (4×),highly resistant (highly resistant plants (scores 0-15))
same,Resistance evaluation,[1]; topramezone 200 g ai/ha (8×),highly resistant (highly resistant plants (scores 0-15))
same,tolerance to topramezone (resistance class),[1]; topramezone at four-fold or eight-fold field concentration,highly-resistant
same,tolerance to mesotrione (in words),[2]; in vivo,different degrees of tolerance
same,Resistance evaluation,[2]; [4],highly resistant (highly resistant plants (scores 0-15))
same,Resistance evaluation,[2]; mesotrione 420 g ai/ha (4×),highly resistant (highly resistant plants (scores 0-15))
same,tolerance to mesotrione (resistance class),[2]; mesotrione at four-fold field concentration,highly-resistant
same,tolerance to mesotrione (resistance class),[2]; mesotrione at two-fold field concentration,highly-resistant
same,Classification and statistics of the grade of pesticide damage: Grade 0,[2]; [4],16
same,Classification and statistics of the grade of pesticide damage: Grade 1,[2]; [4],0
same,Classification and statistics of the grade of pesticide damage: Grade 2,[2]; [4],0
same,Classification and statistics of the grade of pesticide damage: Grade 3,[2]; [4],0
same,Classification and statistics of the grade of pesticide damage: Grade 0,[2]; mesotrione 420 g ai/ha (4×),15
same,Classification and statistics of the grade of pesticide damage: Grade 1,[2]; mesotrione 420 g ai/ha (4×),1
same,Classification and statistics of the grade of pesticide damage: Grade 2,[2]; mesotrione 420 g ai/ha (4×),0
same,Classification and statistics of the grade of pesticide damage: Grade 3,[2]; mesotrione 420 g ai/ha (4×),0
same,Scores,[2]; [4],0
same,Scores,[2]; mesotrione 420 g ai/ha (4×),2
same,tolerance to isoxaflutole (in words),[3]; in vivo,different degrees of tolerance
same,Resistance evaluation,[3]; isoxaflutole 140 g ai/ha (2×),highly resistant (highly resistant plants (scores 0-15))
same,Resistance evaluation,[3]; isoxaflutole 280 g ai/ha (4×),highly resistant (highly resistant plants (scores 0-15))
same,tolerance to isoxaflutole (resistance class),[3]; isoxaflutole at four-fold field concentration,highly-resistant
same,tolerance to isoxaflutole (resistance class),[3]; isoxaflutole at two-fold field concentration,highly-resistant
same,Classification and statistics of the grade of pesticide damage: Grade 0,[3]; isoxaflutole 140 g ai/ha (2×),16
same,Classification and statistics of the grade of pesticide damage: Grade 1,[3]; isoxaflutole 140 g ai/ha (2×),0
same,Classification and statistics of the grade of pesticide damage: Grade 2,[3]; isoxaflutole 140 g ai/ha (2×),0
same,Classification and statistics of the grade of pesticide damage: Grade 3,[3]; isoxaflutole 140 g ai/ha (2×),0
same,Classification and statistics of the grade of pesticide damage: Grade 0,[3]; isoxaflutole 280 g ai/ha (4×),12
same,Classification and statistics of the grade of pesticide damage: Grade 1,[3]; isoxaflutole 280 g ai/ha (4×),4
same,Classification and statistics of the grade of pesticide damage: Grade 2,[3]; isoxaflutole 280 g ai/ha (4×),0
same,Classification and statistics of the grade of pesticide damage: Grade 3,[3]; isoxaflutole 280 g ai/ha (4×),0
same,Scores,[3]; isoxaflutole 140 g ai/ha (2×),0
same,Scores,[3]; isoxaflutole 280 g ai/ha (4×),8
